The values below come from patent publication US20250066503A1, “CELL INJURY INDUCING THERAPEUTIC DRUG FOR USE IN CANCER THERAPY” (CHUGAI SEIYAKU KABUSHIKI KAISHA, priority 2016, published 2025).

Entries after “also recorded” stand apart in the source; their conditions may differ.

The conditions of data set [1]: systemic administration; non-small-cell lung cancer patients; Phase I; cited from earlier work.
Data set [2] relates to NCI-H446 human cancer cell line. The data set can be described thus: Cytotoxic activity (cell proliferation inhibition rate, xCELLigence) with human PBMCs. As to conditions: human PBMCs as effector cells; NCI-H446 target cells; 72 hours. It counts as cell-based. As for the experimental part:
Using a syringe preloaded with 100 μL of 1,000 units/mL heparin solution (Novo Heparin for injection, 5000 units, Novo Nordisk), 50 mL of peripheral blood was collected from each healthy volunteer (adult individual). This peripheral blood was diluted two-fold in PBS(−), divided into four aliquots, and added into a Leucosep tube for lymphocyte separation (Cat. No. 227290, Greiner Bio-One) that had been loaded with 15 mL of Ficoll-Paque PLUS and subjected to centrifugation in advance. This separation tube was centrifuged (at 2150 rpm for ten minutes at room temperature), and then the mononuclear cell fraction was collected. The cells in the mononuclear cell fraction were washed once with the Dulbecco's Modified Eagle's Medium containing 10% FBS (manufactured by SIGMA, hereinafter referred to as 10% FBS/D-MEM), and then prepared to have a cell density of 4×10^6 cells/mL using 10% FBS/D-MEM. The cell suspension prepared this way was used as the human PBMC solution in the experiment below.
Cytotoxic activity was assessed by the rate of cell proliferation inhibition using the xCELLigence Real-Time Cell Analyzer (Roche Diagnostics). […]
Cytotoxic activity was measured by the method described in Reference Example 1-3-2.
CDR and FR were determined according to the Kabat definition (Kabat numbering). […]

The next data set concerns PC-10 xenograft tumor. The data set is described as follows: In vivo drug efficacy, NOD scid/T cell-injected model, PC-10. The arrangement: species or system NOD scid mice. Particulars: 1 mg/kg once through the tail vein, compared to the vehicle-administered group. The method, then: Methods called an NOD scid/T cell-injected model, a humanized NOG mouse model, and a human CD3εδγ gene-modified mouse model were used in the in vivo drug efficacy evaluation. Assay using an NOD scid/T cell-injected model was performed as follows. […] T cells expanded by culturing human PBMCs in vitro were injected into the NOD scid mice with confirmed tumor establishment. The mice were treated by administering bispecific antibody-38 and bispecific antibody-30, -31, -32, or -33. Assay using a humanized NOG mouse model was performed as follows. CD34-positive hematopoietic stem cells derived from umbilical cord blood were transplanted into NOG mice by tail vein injection. Human T cells are constantly supplied in the mice, which are called humanized NOG mice. The PC-10 cell line was transplanted into humanized NOG mice. The humanized NOG mice with confirmed establishment of PC-10 tumor were treated by administering antibody-38. Assay using a human CD3εδγ gene-modified mouse model was performed as follows. Cells of mouse-derived cell line forced to express human GPC3 were transplanted into a human CD3εδγ gene-modified mouse model, which had been prepared according to Reference Example 10. The human CD3εδγ gene-modified mice with confirmed tumor establishment were treated by administering antibody-38. […]

On to catumaxomab, for which the maximum tolerable dose in data set [1] is given as 5 g/body.

B1: GPC3_ERY27_hCE115: humanized anti-human CD3ε chain and anti-human GPC3 bispecific antibody (SEQ ID NOs: 54, 55, and 56) (protein)
chain 1: QVQLVQSGAEVKKPGASVKVSCKASGYTFTDYEMHWIRQPPGQGLEWIGAIDPKTGDTAYSQKFKGRVTLTADKSTSTAYMELSSLTSEDTAVYYCTRFYSYTYWGQGTLVTVSSASTKGPSVFPLAPCSRSTSESTAALGCLVKDYFPEPVTVSWNSGALTSGVHTFPAVLQSSGLYSLSSVVTVPSSSLGTKTYTCNVDHKPSNTKVDKRVESKYGPPCPPCPAPEFRGGPKVFLFPPKPKDTLMISRTPEVTCVVVDVSQEDPEVQFNWYVDGVEVHNAKTKPREEQFASTYRVVSVLTVLHQDWLNGKEYKCKVSNKGLPSSIEKTISKAKGQPREPQVYTLPPSQKEMTKNQVSLTCLVKGFYPSDIAVEWESNGQPENNYKTTPPVLDSDGSFFLYSRLTVDKSRWQEGNVFSCSVMHEALHNRYTQKSLSLSLHHHHHHHH
chain 2: QVQLVESGGGVVQPGRSLRLSCAASGFTFSNAWMHWVRQAPGKGLEWVAQIKAKSNNYATYYAESVKGRFTISRDDSKNSLYLQMNSLKTEDTAVYYCRYVHYGAYYGVDAWGQGTTVTVSSASTKGPSVFPLAPCSRSTSESTAALGCLVKDYFPEPVTVSWNSGALTSGVHTFPAVLQSSGLYSLSSVVTVPSSSLGTKTYTCNVDHKPSNTKVDKRVESKYGPPCPPCPAPEFRGGPKVFLFPPKPKDTLMISRTPEVTCVVVDVSQEDPEVQFNWYVDGVEVHNAKTKPREEQFASTYRVVSVLTVLHQDWLNGKEYKCKVSNKGLPSSIEKTISKAKGQPREPQVYTLPPSQEEMTKNQVSLTCLVKGFYPSDIAVEWESNGQPENNYKTTPPVLDSDGSFFLYSRLTVDKSRWQEGNVFSCSVMHEALHNHYTQESLSLSLDYKDDDDK
chain 3: DIVMTQSPLSLPVTPGEPASISCRSSQSLVHSNRNTYLHWYQQKPGQAPRLLIYKVSNRFSGVPDRFSGSGSGTDFTLKISRVEAEDVGVYYCGQGTQVPYTFGQGTKLEIKRTVAAPSVFIFPPSDEQLKSGTASVVCLLNNFYPREAKVQWKVDNALQSGNSQESVTEQDSKDSTYSLSSTLTLSKADYEKHKVYACEVTHQGLSSPVTKSFNRGEC
modifications: An artificially generated sequence
In the case of B1, the “cytotoxic activity (T-cell-dependent cellular cytotoxicity)” value in data set [2] was “reduction of the activity; also recorded: lower”.

B2: antibody-39: bispecific antibody; CD3-binding variable region SEQ ID NO: 433, GPC-binding SEQ ID NO: 434, common L chain SEQ ID NO: 435 (antibody)
heavy 1: QVQLVQSGAEVKKPGASVKVSCKASGYTFTDYEMHWIRQPPGQGLEWIGAIDPKTGDTAYSQKFKGRVTLTADKSTSTAYMELSSLTSEDTAVYYCTRFYSYTYWGQGTLVTVSS
heavy 2: EVQLVETGGSLVQPGKSLKLTCATSGFTFSNAWMHWVRQSPEKQLEWVAQIKAKSNNYATYYAESVKGRFTISRDDSKSNIYLQMNSLKEEDTAVYYCRYVHYGAYYGVDAWGQGTSVTVSS
light: DIVMTQSPLSLPVTPGEPASISCRSSQSLVHSNRNTYLHWYQQKPGQAPRLLIYKVSNRFSGVPDRFSGSGSGTDFTLKISRVEAEDVGVYYCGQGTQVPYTFGQGTKLEIK
modifications: An artificially generated sequence
On to B2, for which the anti-tumor effect result in the data set on PC-10 xenograft tumor is listed as “evident anti-tumor effect”.
